This passage reports % of WT hCD27 binding (geo mean FITC), EC50 and IC50 (read off the curve) results from patent publication US20190300618A1 (Merck Sharp & Dohme, published 2019).

For one assay, the target named is D32A. Put plainly: flow cytometry, CHO-K1; sub-column 1 of 2. For orientation: A flow cytometer gives signals particle by particle.
For the next assay, the target named is D43A. Description: flow cytometry, CHO-K1; sub-column 1 of 2.
A further assay concerns the target F28A. Description: flow cytometry, CHO-K1; sub-column 1 of 2.
A further assay deals with H36A. Put plainly: flow cytometry, CHO-K1; sub-column 1 of 2.
The target in the next assay is H60A. Put plainly: flow cytometry, CHO-K1; sub-column 1 of 2.
For the next assay, the target named is K31A. Put plainly: flow cytometry, CHO-K1; sub-column 1 of 2.
Another assay deals with P44A. Description: flow cytometry, CHO-K1; sub-column 1 of 2.
A further assay deals with Q15A. Description: flow cytometry, CHO-K1; sub-column 1 of 2.
The next assay has as its target Q91A. Put plainly: flow cytometry, CHO-K1; sub-column 1 of 2.
A further assay has as its target R10A. Put plainly: flow cytometry, CHO-K1; sub-column 1 of 2.
The target in the next assay is R87A. Put plainly: flow cytometry, CHO-K1; sub-column 1 of 2.
The target in the next assay is R93A. Put plainly: flow cytometry, CHO-K1; sub-column 1 of 2.
Another assay deals with S63A. Put plainly: flow cytometry, CHO-K1; sub-column 1 of 2.
The target in the next assay is W13A. Description: flow cytometry, CHO-K1; sub-column 1 of 2.
Assay [1] deals with human CD27 (wild type), expressed on cells (human) (UniProt P26842). Put plainly: flow cytometry MFI on CD8+ T cells from peripheral blood.
In assay [2] the target is Macaca mulatta CD27 (mmCD27), expressed on cells (Macaca mulatta (rhesus); same entry given for cynomolgus monkey). Put plainly: flow cytometry MFI on CD4+ T cells from rhesus peripheral blood.
The target of assay [3] is human CD27 (wild type), expressed on cells (human) (UniProt P26842). Description: competition cell ELISA on CHO-hCD27; competitor detected: mouse hCD27.15 at 1 µg/ml. Background: An ELISA detects its analyte on a solid surface through an enzyme-linked reagent.

pEC50: −log10 of the molar value.

In general, pEC50 refers to the EC50 on a negative log10 scale, so that one unit is a factor of ten. Regarding 1F5 hIgG1 (antibody), the % of WT hCD27 binding (geo mean FITC) with D32A is 115%; in the assay with D43A it was 202%; with F28A, 113%; in the assay with H36A, 116%; in the assay with H60A it was 176%; with K31A, 205%. The % of WT hCD27 binding (geo mean FITC) in the assay with P44A was 150%; with Q15A, 99%; in the assay with Q91A it was 156%; with R10A, 105%; with R87A, 40.8%; in the assay with R93A, 120%. For the same substance, the % of WT hCD27 binding (geo mean FITC) amounted to 144% in the assay with S63A and 89.5% with W13A. In addition, the pEC50 in assay [1] was 8.89; in assay [2], 8.80. Moreover, the IC50 (read off the curve) in assay [3] came out at 4 nM.
